Laboratory results: paper PMC6721724, “The Intrinsically Disordered C-Terminal Domain Triggers Nucleolar Localization and Function Switch of PARN in Response to DNA Damage” (Cells, 2019)

Molecular target: the molecule itself
Experiment: cross-linking; purified protein cross-linked with 0.03% glutaraldehyde, analysed by SDS-PAGE

B1: full-length PARN, recombinant (enzyme, human, UniProt O95453 1-639, looked up)
chain: MEIIRSNFKSNLHKVYQAIEEADFFAIDGEFSGISDGPSVSALTNGFDTPEERYQKLKKHSMDFLLFQFGLCTFKYDYTDSKYITKSFNFYVFPKPFNRSSPDVKFVCQSSSIDFLASQGFDFNKVFRNGIPYLNQEEERQLREQYDEKRSQANGAGALSYVSPNTSKCPVTIPEDQKKFIDQVVEKIEDLLQSEENKNLDLEPCTGFQRKLIYQTLSWKYPKGIHVETLETEKKERYIVISKVDEEERKRREQQKHAKEQEELNDAVGFSRVIHAIANSGKLVIGHNMLLDVMHTVHQFYCPLPADLSEFKEMTTCVFPRLLDTKLMASTQPFKDIINNTSLAELEKRLKETPFNPPKVESAEGFPSYDTASEQLHEAGYDAYITGLCFISMANYLGSFLSPPKIHVSARSKLIEPFFNKLFLMRVMDIPYLNLEGPDLQPKRDHVLHVTFPKEWKTSDLYQLFSAFGNIQISWIDDTSAFVSLSQPEQVKIAVNTSKYAESYRIQTYAEYMGRKQEEKQIKRKWTEDSWKEADSKRLNPQCIPYTLQNHYYRNNSFTAPSTVGKRNLSPSQEEAGLEDGVSGEISDTELEQTDSCAEPLSEGRKKAKKLKRMKKELSPAGSISKNSPATLFEVPDTW
notes: poly(A)-specific ribonuclease (PARN), human, full length; cloned in pET-28a
B1: binds.
